Results: patent US20220324970A1 (Janssen / Centocor, published 2022)
Like-named read-outs stand apart in the source and are kept apart here.

T1: hpIgR_D3
T1 construct: HIS-tagged construct from HEK293 cells; also called human pIgR extracellular domain 3 (D3); hD3
T1 HIS-tagged domain construct: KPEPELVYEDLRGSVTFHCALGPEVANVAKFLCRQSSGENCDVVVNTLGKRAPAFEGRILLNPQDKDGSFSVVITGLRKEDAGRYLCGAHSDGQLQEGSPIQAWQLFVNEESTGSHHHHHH

T2: human pIgR extracellular domain 4-domain 5 (D4-D5) (human, UniProt P01833 350-565)
T2 construct: HIS-tagged construct made in HEK293 cells; also called hpIgR domains 4-5
T2 chain: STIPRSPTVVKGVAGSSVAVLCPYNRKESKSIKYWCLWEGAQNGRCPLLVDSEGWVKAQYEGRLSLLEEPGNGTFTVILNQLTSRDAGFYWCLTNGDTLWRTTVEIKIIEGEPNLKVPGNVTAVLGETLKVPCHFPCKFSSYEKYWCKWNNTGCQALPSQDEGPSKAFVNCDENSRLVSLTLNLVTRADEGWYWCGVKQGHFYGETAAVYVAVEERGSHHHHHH

T3: hpIgR_D2-D3
T3 construct: HIS-tagged construct from HEK293 cells; also called human pIgR extracellular domain 2-domain 3 (D2-D3); hD2-D3
T3 HIS-tagged domain construct: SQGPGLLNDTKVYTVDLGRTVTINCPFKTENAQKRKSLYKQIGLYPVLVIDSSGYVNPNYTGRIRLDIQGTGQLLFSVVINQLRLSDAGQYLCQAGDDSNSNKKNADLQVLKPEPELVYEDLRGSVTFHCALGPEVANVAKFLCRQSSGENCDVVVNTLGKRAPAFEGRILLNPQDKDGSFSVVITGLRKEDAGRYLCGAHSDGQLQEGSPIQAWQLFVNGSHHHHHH


Columns and labels:
[1] = biological target: T4, human pIgR extracellular domain (ECD) (human, UniProt P01833 19-638); experiment: ECL (MSD), hpIgR-ECD coated, anti-VHH detection
T4 construct: also called hpIgR ECD

hpIgR_D3 = biological target: T1, hpIgR_D3; experiment: ECL (MSD) heat map, HIS-tagged construct captured via anti-HIS, anti-human-Fc detection;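 further: VHH-mono-Fc molecules tested at 100 µg/ml for 2 h on captured His-tagged pIgR constructs (10 µg/ml), read-out as electrochemiluminescence units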
[2] = biological target: T5, human pIgR extracellular domain 2 (D2) (human, UniProt P01833 128-242); experiment: as above
T5 construct: HIS-tagged construct made in HEK293 cells; also called hpIgR domain 2

[3] = biological target: T4, human pIgR extracellular domain (ECD); experiment: BLI (Octet), VHH-mono-Fc and hpIgR ectodomain
[4] = biological target: T4, human pIgR extracellular domain (ECD); experiment: BLI (Octet RED384), 1:1 fit, 25 C, PBS; column kdis
[5] = biological target: T2, human pIgR extracellular domain …; experiment: as above
[6] = biological target: T4, human pIgR extracellular domain (ECD); experiment: ECL (MSD), hpIgR-ECD coated, anti-Fc detection
[7] = biological target: T6, human pIgR, full-length, on cells (human, UniProt P01833 19-764); experiment: cell-based or functional assay
[8] = biological target: T4, human pIgR extracellular domain (ECD); experiment: BLI; summary table, repeats Table 1
[9] = biological target: T4, human pIgR extracellular domain (ECD); experiment: ECL (MSD), anti-VHH detection against anti-Fc detection
Description: To check whether VHH recognizes a buried epitope on pIgR, EC₅₀ values were measured for VHH-mono-Fc molecules binding to hpIgR-ECD protein by electrochemiluminescence using two different detection antibodies, an anti-Fc antibody and an anti-VHH antibody. pIgR ECD (10 μg/ml in PBS) was coated on high-bind MSD plates for 2 hours at RT with 1000 rpm, incubated with blocking buffer for 1 hour at RT, incubated with VHH-mono-Fc molecules (increasing concentrations in PBS) for 2 hours at RT with 1000 rpm, washed 3× with PBT, incubated with ruthenylated secondary antibody (2 μg/ml in PBS) for 1 hour at RT with 1000 rpm, washed 3× with PBT and read plates in 40 ul reading buffer using the MSD imager. EC50 was calculated by fitting log VHH concentration versus log ECLU in Prism (Graphpad). The increase in EC₅₀ (>50-fold) due to anti-VHH detection was used as a measure to determine whether VHH recognized buried epitope on pIgR.

[10] = biological target: T6, human pIgR, full-length, on cells; experiment: flow cytometry on MDCK-hpIgR cells
Description: (§1) Flow Cytometry was performed as follows. To test whether VHH-mono-Fc molecules recognize cell-surface hpIgR, Madin-Darby canine kidney (MDCK) cells engineered to express full-length hpIgR were used. Cells were cultured in Dulbecco's modified Eagle's medium containing 10% fetal calf serum at 37° C. with 5% CO₂. Cells were split into equal fractions (≈70,000 cells) and incubated with increasing concentrations of VHH-mono-Fc molecules for 30 min at 4 C. […] Cells were washed twice with cold staining buffer, resuspended in running buffer and analyzed with an iQue Screener (IntelliCyt Corporation). Binding was assessed by RL1 (A647) Geomeans from the live cell population and EC50 was calculated by fitting log VHH concentration versus MFI in Prism (Graphpad).

[11] = biological target: T6, human pIgR, full-length, on cells; experiment: flow cytometry on MDCK-hpIgR cells; summary table, repeats Table 1
Description: as §1

[12] = biological target: T4, human pIgR extracellular domain (ECD); experiment: BLI (Octet RED384), 1:1 fit, 25 C, PBS
[13] = biological target: T2, human pIgR extracellular domain …; experiment: BLI (Octet RED384), 1:1 fit, 25 C, PBS
[14] = biological target: T4, human pIgR extracellular domain (ECD); experiment: BLI; summary table, repeats Table 1; remark: listed apart in the source
[15] = biological target: T6, human pIgR, full-length, on cells; experiment: cell-based or functional assay; remark: listed apart in the source
[16] = biological target: T7, human pIgR extracellular domain 5 (D5) (human, UniProt P01833 460-565); experiment: ECL (MSD) heat map, HIS-tagged construct captured via anti-HIS, anti-human-Fc detection
T7 construct: HIS-tagged construct made in HEK293 cells; also called hpIgR domain 5
Description: (§2) The Electrochemiluminescence assay was performed as follows. A meso-scale discovery (MSD) platform was used for conducting epitope mapping and epitope burial studies. To test the binding of VHH-mono-Fc molecules to purified pIgR protein constructs, Streptavidin MSD plates were coated with a biotinylated anti-HIS antibody (2 μg/ml in PBS) for 1 hour at RT with 1000 rpm, washed 3× with PBT (PBS+0.1% Tween-20), incubated with blocking buffer for 1 hour at RT, incubated with His-tagged pIgR proteins (10 μg/ml in PBS) for 2 hours at RT with 1000 rpm, washed 3× with PBT, incubated with VHH-mono-Fc molecules (100 μg/ml in PBS) for 2 hours at RT with 1000 rpm, washed 3× with PBT, incubated with ruthenylated-anti-human-Fc antibody (2 μg/ml in PBS) for 1 hour at RT with 1000 rpm, washed 3× with PBT and read plates in 40 ul reading buffer using the MSD imager. ECLU values were plotted as a heatmap.

hpIgR_D2-D3 [17] = biological target: T3, hpIgR_D2-D3; experiment: as above
Description: as §2

[18] = biological target: T6, human pIgR, full-length, on cells; experiment: flow cytometry on MDCK-hpIgR cells; summary table, repeats Table 1; remark: listed apart in the source
Description: as §1

[19] = biological target: T6, human pIgR, full-length, on cells; experiment: cell-based or functional assay; remark: listed apart in the source
[20] = biological target: T8, human pIgR extracellular domain 1 (D1) (human, UniProt P01833 19-127); experiment: ECL (MSD) heat map, HIS-tagged construct captured via anti-HIS, anti-human-Fc detection;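 further: VHH-mono-Fc molecules tested at 100 µg/ml for 2 h on captured His-tagged pIgR constructs (10 µg/ml), read-out as electrochemiluminescence units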
T8 construct: HIS-tagged construct made in HEK293 cells; also called hpIgR domain-1

[21] = biological target: T7, human pIgR extracellular domain 5 (D5); experiment: as above; remark: listed apart in the source
[22] = biological target: T4, human pIgR extracellular domain (ECD); experiment: BLI (Octet RED384), 1:1 fit, 25 C, PBS; column kdis; remark: listed apart in the source
hpIgR_D2-D3 [23] = biological target: T3, hpIgR_D2-D3; experiment: as above
[24] = biological target: T5, human pIgR extracellular domain 2 (D2); experiment: as above
[25] = biological target: T9, human pIgR extracellular domain 1-domain 2 (D1-D2) (human, UniProt P01833 19-240); experiment: as above
T9 construct: HIS-tagged construct made in HEK293 cells

[26] = biological target: T4, human pIgR extracellular domain (ECD); experiment: BLI (Octet RED384), 1:1 fit, 25 C, PBS; remark: listed apart in the source
Description: (§3) Bio-layer Interferometry was performed as follows. […] Data were collected with Octet Data Acquisition version 7.1.0.87 (ForteBio) and analyzed using Octet Data Analysis version 7.1 (ForteBio). To measure binding kinetics between VHH-mono-Fc molecules and HIS-tagged pIgR proteins, VHH-mono-Fc was immobilized on amine-reactive generation-2 (ARG2) biosensors according to manufacturer's instructions and increasing concentrations of pIgR proteins were exposed to sensor-immobilized VHH. In some cases, HIS-tagged pIgR proteins were immobilized on anti-HIS biosensors and exposed to increasing concentrations of VHH-mono-Fc molecules. Association and dissociation rates were measured by the shift in wavelength (nm). […] All reactions were performed at 25° C. in PBS.

hpIgR_D2-D3 [27] = biological target: T3, hpIgR_D2-D3; experiment: BLI (Octet RED384), 1:1 fit, 25 C, PBS
Description: as §3

[28] = biological target: T5, human pIgR extracellular domain 2 (D2); experiment: BLI (Octet RED384), 1:1 fit, 25 C, PBS
Description: as §3

[29] = biological target: T9, human pIgR extracellular domain …; experiment: BLI (Octet RED384), 1:1 fit, 25 C, PBS
Description: as §3

[30] = biological target: T2, human pIgR extracellular domain …; experiment: ECL (MSD) heat map, HIS-tagged construct captured via anti-HIS, anti-human-Fc detection
Description: as §2

T4 sequence (P01833 other isoform, or with tags, fused parts or gaps): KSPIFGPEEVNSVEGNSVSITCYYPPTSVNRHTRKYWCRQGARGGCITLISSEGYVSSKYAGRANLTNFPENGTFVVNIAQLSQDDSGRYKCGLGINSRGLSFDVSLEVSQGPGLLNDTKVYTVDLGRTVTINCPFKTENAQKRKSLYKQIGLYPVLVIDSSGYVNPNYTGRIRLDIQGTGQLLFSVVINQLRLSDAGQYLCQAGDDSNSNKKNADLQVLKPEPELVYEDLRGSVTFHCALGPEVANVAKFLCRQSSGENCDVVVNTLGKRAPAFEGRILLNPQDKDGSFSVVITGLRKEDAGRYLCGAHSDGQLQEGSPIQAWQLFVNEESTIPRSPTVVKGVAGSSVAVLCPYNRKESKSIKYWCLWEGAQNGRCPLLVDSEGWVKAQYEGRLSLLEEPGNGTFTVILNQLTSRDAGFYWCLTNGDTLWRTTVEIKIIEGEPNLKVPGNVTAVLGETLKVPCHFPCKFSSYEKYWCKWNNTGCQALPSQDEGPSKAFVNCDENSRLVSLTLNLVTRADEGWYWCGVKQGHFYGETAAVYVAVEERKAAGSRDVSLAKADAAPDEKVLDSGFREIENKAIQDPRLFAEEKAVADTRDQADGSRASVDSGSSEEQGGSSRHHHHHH
T9 sequence (P01833 other isoform, or with tags, fused parts or gaps limits assumed): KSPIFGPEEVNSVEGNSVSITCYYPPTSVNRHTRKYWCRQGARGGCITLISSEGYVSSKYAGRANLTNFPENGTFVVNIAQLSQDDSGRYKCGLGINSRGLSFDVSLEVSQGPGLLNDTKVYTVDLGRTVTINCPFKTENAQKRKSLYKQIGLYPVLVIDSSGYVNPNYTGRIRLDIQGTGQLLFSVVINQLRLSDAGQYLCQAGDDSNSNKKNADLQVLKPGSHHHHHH
T6 sequence (P01833 19-764): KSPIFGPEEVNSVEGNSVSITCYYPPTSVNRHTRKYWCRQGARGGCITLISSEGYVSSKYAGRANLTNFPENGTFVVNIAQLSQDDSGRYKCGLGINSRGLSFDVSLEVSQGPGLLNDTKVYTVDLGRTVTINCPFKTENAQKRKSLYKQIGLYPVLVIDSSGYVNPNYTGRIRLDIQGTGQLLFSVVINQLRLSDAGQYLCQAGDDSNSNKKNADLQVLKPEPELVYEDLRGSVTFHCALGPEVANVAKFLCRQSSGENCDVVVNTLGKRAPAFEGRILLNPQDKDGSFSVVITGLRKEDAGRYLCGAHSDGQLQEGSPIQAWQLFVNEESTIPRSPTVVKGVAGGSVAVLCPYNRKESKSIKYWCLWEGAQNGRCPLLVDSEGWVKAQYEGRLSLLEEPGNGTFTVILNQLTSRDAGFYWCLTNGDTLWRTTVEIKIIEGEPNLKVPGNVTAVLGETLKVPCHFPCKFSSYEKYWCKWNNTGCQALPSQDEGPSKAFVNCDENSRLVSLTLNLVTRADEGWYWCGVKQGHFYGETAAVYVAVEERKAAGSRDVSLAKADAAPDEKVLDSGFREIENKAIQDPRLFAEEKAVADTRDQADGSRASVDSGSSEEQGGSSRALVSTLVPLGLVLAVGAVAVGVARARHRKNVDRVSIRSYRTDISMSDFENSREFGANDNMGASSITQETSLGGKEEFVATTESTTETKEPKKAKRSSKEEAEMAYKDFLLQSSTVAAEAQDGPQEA
T8 sequence (P01833 other isoform, or with tags, fused parts or gaps limits assumed): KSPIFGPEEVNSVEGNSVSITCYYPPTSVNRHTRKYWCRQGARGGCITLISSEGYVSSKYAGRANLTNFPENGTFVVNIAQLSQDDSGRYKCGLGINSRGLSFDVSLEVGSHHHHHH

| EC50 [1] | Kd [3] | EC50 [6] | For. Trans. (Fold Incr.) [7] | Rev. Trans (Fold Incr.) [7] | Kd [8] | Fold change in EC50 [9] | EC50 [10] | EC50 [11] | Kd [14] | Transcytosis (Fold Incr.) [15] | EC50 [18] | Binder | binding result (hpIgR_D3) | also measured |
| --- | --- | --- | --- | --- | --- | --- | --- | --- | --- | --- | --- | --- | --- | --- |
| 43.9 nM | 256 nM | 17.6 nM | 1.3 fold | 3.4 fold | 256 nM | 2.5 fold | 20.4 nM | 20.4 nM | 256 nM | 5 fold | 20.4 nM | VHH10-linker-mono-Fc protein (Fc fusion, made in CHO cells; also called VHH10-mono-Fc; hpIgR_225) EVQVVESGGGLVQAGGSLRLSCAASGFTFTRYAMGWFRQAPGKERSFVAAISWSGSSAGYGDSVKGRFTISRDNAKNTLYLQMNSLKPEDTAVYYCAADPFNQGYWGQGTQVTVSSEPKTPKPQPQPQLQPQPNPTTESKSPKSPAPELLGGPSVFLFPPKPKDTLMISRTPEVTCVVVDVSHEDPEVKFNWYVDGVEVHNAKTKPREEQYNSTYRVVSVLTVLHQDWLNGKEYKCKVSNKALPAPIEKTISKAKGQPREPQVYTKPPSREEMTKNQVSLSCLVKGFYPSDIAVEWESNGQPENNYKTTVPVLDSDGSFRLASYLTVDKSRWQQGNVFSCSVMHEALHNHYTQKSLSLSPGK | no binding (tested: 100 ug/ml (single concentration)) | binding result [2]: no binding (tested: 100 ug/ml (single concentration)); koff [4]: 0.00513 s⁻¹; koff [5]: 0.00188 s⁻¹; Kd [12]: 256 nM; kon [12]: 20000 M⁻¹ s⁻¹; Kd [13]: 115 nM; kon [13]: 16300 M⁻¹ s⁻¹; binding result [16]: no binding (tested: 100 ug/ml (single concentration)); binding result (hpIgR_D2-D3 [17]): no binding (tested: 100 ug/ml (single concentration)) |
| 4190 nM | 27 nM | 3.9 nM | 25.6 fold | 14.6 fold | 27 nM | 1060 fold | 11.5 nM | 11.5 nM | 27 nM | 30.7 fold | 11.5 nM | VHH6-linker-mono-Fc protein (Fc fusion, made in CHO cells; also called VHH6-mono-Fc; hpIgR_181) EVQLVESGGGLVQAGGSLRLSCAVSGSSVSSDAMGWYRQAPGNQRAWVAFISGGGTTTYADSVKGRFTISRDNTKNTVYLHMNSLKPEDTAVYYCNHPLTSRWGQGTQVTVSSEPKTPKPQPQPQLQPQPNPTTESKSPKSPAPELLGGPSVFLFPPKPKDTLMISRTPEVTCVVVDVSHEDPEVKFNWYVDGVEVHNAKTKPREEQYNSTYRVVSVLTVLHQDWLNGKEYKCKVSNKALPAPIEKTISKAKGQPREPQVYTKPPSREEMTKNQVSLSCLVKGFYPSDIAVEWESNGQPENNYKTTVPVLDSDGSFRLASYLTVDKSRWQQGNVFSCSVMHEALHNHYTQKSLSLSPGK | no binding (tested: 100 ug/ml (single concentration)) | increase in their apical concentration relative to control VHH (MDCK-hpIgR monolayers) [19]: > 10 fold; binding result [20]: no binding (tested: 100 ug/ml (single concentration)); binding result [21]: no binding (tested: 100 ug/ml (single concentration)); koff [22]: 0.00219 s⁻¹; koff (hpIgR_D2-D3 [23]): 0.00249 s⁻¹; koff [24]: 0.00269 s⁻¹; koff [25]: 0.00253 s⁻¹; Kd [26]: 48.9 nM; kon [26]: 44700 M⁻¹ s⁻¹; Kd (hpIgR_D2-D3 [27]): 71.5 nM; kon (hpIgR_D2-D3 [27]): 34800 M⁻¹ s⁻¹; Kd [28]: 68.1 nM; kon [28]: 39500 M⁻¹ s⁻¹; Kd [29]: 63.2 nM; kon [29]: 40000 M⁻¹ s⁻¹; binding result [30]: no binding (tested: 100 ug/ml (single concentration)) |
